# Measured values published in US20210388087A1 (Chugai, published 2021).
# Changes are numbered by the printed parent chain. In names and notes the source's numbering stands.
# B1: H183/L072 VL P95D (antibody, name in Kabat numbering, V domains shown)
# VH: QVQLVESGGGLVQPGRSLRLSCAASGFTFSNAWMHWVRQAPGKGLEWVAQIKDKGNAYAAYYAPSVKGRFTISRDDSKNSIYLQMNSLKTEDTAVYYCHYVHYASASTVLPAFGVDAWGQGTTVTVSS
# VL: DIVMTQSPLSLPVTPGEPASISCQASQELVHMNRNTYLHWYQQKPGQAPRLLIYKVSNRFPGVPDRFSGSGSGTDFTLKISRVEAEDVGVYYCAQGTSVDFTFGQGTKLEIK
# B2: H183/L072 VL Q90D (antibody, name in Kabat numbering, V domains shown)
# VH: B1 VH
# VL: B1 VL with Q95D, D100P
# B3: H183/L072 VL Q27W (antibody, name in Kabat numbering, V domains shown)
# VH: B1 VH
# VL: B1 VL with Q27W, D100P
# B4: H183/L072 VL Q24W (antibody, name in Kabat numbering, V domains shown)
# VH: B1 VH
# VL: B1 VL with Q24W, D100P
# B5: H183/L072 VL Q24I (antibody, name in Kabat numbering, V domains shown)
# VH: B1 VH
# VL: B1 VL with Q24I, D100P
# B6: H183/L072 VL Q24N (antibody, name in Kabat numbering, V domains shown)
# VH: B1 VH
# VL: B1 VL with Q24N, D100P
# B7: H183/L072 VL Q27T (antibody, name in Kabat numbering, V domains shown)
# VH: B1 VH
# VL: B1 VL with Q27T, D100P
# B8: H183/L072 VL Q27R (antibody, name in Kabat numbering, V domains shown)
# VH: B1 VH
# VL: B1 VL with Q27R, D100P
# B9: H183/L072 VL Q27S (antibody, name in Kabat numbering, V domains shown)
# VH: B1 VH
# VL: B1 VL with Q27S, D100P
# B10: H183/L072 VL Q24Y (antibody, name in Kabat numbering, V domains shown)
# VH: B1 VH
# VL: B1 VL with Q24Y, D100P
# B11: H183/L072 VL Q24M (antibody, name in Kabat numbering, V domains shown)
# VH: B1 VH
# VL: B1 VL with Q24M, D100P
# B12: H183/L072 VL Q24D (antibody, name in Kabat numbering, V domains shown)
# VH: B1 VH
# VL: B1 VL with Q24D, D100P
# B13: H183/L072 VL Q27M (antibody, name in Kabat numbering, V domains shown)
# VH: B1 VH
# VL: B1 VL with Q27M, D100P
# B14: H183/L072 VL Q27K (antibody, name in Kabat numbering, V domains shown)
# VH: B1 VH
# VL: B1 VL with Q27K, D100P
# B15: H183/L072 VL P95K (antibody, name in Kabat numbering, V domains shown)
# VH: B1 VH
# VL: B1 VL with D100K
# B16: H183/L072 VL P95Q (antibody, name in Kabat numbering, V domains shown)
# VH: B1 VH
# VL: B1 VL with D100Q
# B17: H183/L072 VL Q27N (antibody, name in Kabat numbering, V domains shown)
# VH: B1 VH
# VL: B1 VL with Q27N, D100P
# B18: H183/L072 VL Q27F (antibody, name in Kabat numbering, V domains shown)
# VH: B1 VH
# VL: B1 VL with Q27F, D100P
# B19: H183/L072 VL P95H (antibody, name in Kabat numbering, V domains shown)
# VH: B1 VH
# VL: B1 VL with D100H
# B20: H183/L072 VL Q27V (antibody, name in Kabat numbering, V domains shown)
# VH: B1 VH
# VL: B1 VL with Q27V, D100P
# B21: H183/L072 VL Q27I (antibody, name in Kabat numbering, V domains shown)
# VH: B1 VH
# VL: B1 VL with Q27I, D100P
# B22: H183/L072 VL Q24G (antibody, name in Kabat numbering, V domains shown)
# VH: B1 VH
# VL: B1 VL with Q24G, D100P
# B23: H183/L072 VL Q24K (antibody, name in Kabat numbering, V domains shown)
# VH: B1 VH
# VL: B1 VL with Q24K, D100P
# B24: H183/L072 VL Q24F (antibody, name in Kabat numbering, V domains shown)
# VH: B1 VH
# VL: B1 VL with Q24F, D100P
# B25: H183/L072 VL Q27A (antibody, name in Kabat numbering, V domains shown)
# VH: B1 VH
# VL: B1 VL with Q27A, D100P
# B26: H183/L072 VL P95E (antibody, name in Kabat numbering, V domains shown)
# VH: B1 VH
# VL: B1 VL with D100E
# B27: H183/L072 VL Q24A (antibody, name in Kabat numbering, V domains shown)
# VH: B1 VH
# VL: B1 VL with Q24A, D100P
# B28: H183/L072 VL Q27G (antibody, name in Kabat numbering, V domains shown)
# VH: B1 VH
# VL: B1 VL with Q27G, D100P
# B29: H183/L072 VL Q24T (antibody, name in Kabat numbering, V domains shown)
# VH: B1 VH
# VL: B1 VL with Q24T, D100P
# B30: H183/L072 VL Q27D (antibody, name in Kabat numbering, V domains shown)
# VH: B1 VH
# VL: B1 VL with Q27D, D100P
# B31: H183/L072 VL Q27Y (antibody, name in Kabat numbering, V domains shown)
# VH: B1 VH
# VL: B1 VL with Q27Y, D100P
# B32: H183/L072 VL Q24S (antibody, name in Kabat numbering, V domains shown)
# VH: B1 VH
# VL: B1 VL with Q24S, D100P
# B33: H183/L072 VL Q27L (antibody, name in Kabat numbering, V domains shown)
# VH: B1 VH
# VL: B1 VL with Q27L, D100P
# B34: H183/L072 VL Q24L (antibody, name in Kabat numbering, V domains shown)
# VH: B1 VH
# VL: B1 VL with Q24L, D100P
# B35: H183/L072 VL Q27H (antibody, name in Kabat numbering, V domains shown)
# VH: B1 VH
# VL: B1 VL with Q27H, D100P
# B36: H183/L072 VL Q27E (antibody, name in Kabat numbering, V domains shown)
# VH: B1 VH
# VL: B1 VL with Q27E, D100P
# B37: H183/L072 VL P95T (antibody, name in Kabat numbering, V domains shown)
# VH: B1 VH
# VL: B1 VL with D100T
# B38: H183/L072 VL Q24R (antibody, name in Kabat numbering, V domains shown)
# VH: B1 VH
# VL: B1 VL with Q24R, D100P
# B39: H183/L072 VL Q24E (antibody, name in Kabat numbering, V domains shown)
# VH: B1 VH
# VL: B1 VL with Q24E, D100P
# B40: H183/L072 VL Q24V (antibody, name in Kabat numbering, V domains shown)
# VH: B1 VH
# VL: B1 VL with Q24V, D100P
# B41: H183/L072 VL Q24H (antibody, name in Kabat numbering, V domains shown)
# VH: B1 VH
# VL: B1 VL with Q24H, D100P
# B42: H183/L072 VL P95S (antibody, name in Kabat numbering, V domains shown)
# VH: B1 VH
# VL: B1 VL with D100S
# Target: T1, Human CD3eg linker (human)
# T1 construct: Single-chain construct; also called recombinant human CD3
# T1 chain: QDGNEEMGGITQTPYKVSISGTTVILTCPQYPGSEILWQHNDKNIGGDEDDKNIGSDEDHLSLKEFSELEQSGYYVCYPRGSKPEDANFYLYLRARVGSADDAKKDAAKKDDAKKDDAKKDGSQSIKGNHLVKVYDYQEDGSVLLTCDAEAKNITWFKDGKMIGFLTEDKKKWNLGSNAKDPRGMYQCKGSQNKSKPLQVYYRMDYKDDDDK
# Experiment: SPR; fold vs parent H183/L072
row,Binder,fold change of affinity
1,B1,0 fold
2,B2,0 fold
3,B3,0.7 fold
4,B4,1.1 fold
5,B5,1.2 fold
6,B6,1.1 fold
7,B7,1 fold
8,B8,1 fold
9,B9,1.1 fold
10,B10,1 fold
11,B11,1.1 fold
12,B12,1.2 fold
13,B13,1.2 fold
14,B14,0.8 fold
15,B15,0 fold
16,B16,0 fold
17,B17,1 fold
18,B18,0.9 fold
19,B19,0 fold
20,B20,0.9 fold
21,B21,0.8 fold

row,Binder,fold change of affinity
1,B22,1.2 fold
2,B23,1 fold
3,B24,0.9 fold
4,B25,1.2 fold
5,B26,0 fold
6,B27,1.1 fold
7,B28,1 fold
8,B29,1.1 fold
9,B30,1.1 fold
10,B31,0.9 fold
11,B32,1.1 fold
12,B33,1 fold
13,B34,1.2 fold
14,B35,1.2 fold
15,B36,1.1 fold
16,B37,0 fold
17,B38,1 fold
18,B39,0 fold
19,B40,1.2 fold
20,B41,1.1 fold
21,B42,0 fold
